Series [1] deals with AcrIIC1Nme.
For series [2], the target named is AcrIIC3Nme.
Series [3] has as its target AcrIIC5Smu.
Series [4] concerns the target AcrE2.
The target in series [5] is AcrIIC4Hpa.
Series [6] addresses AcrIIC2Nme.

B1: Nme1Cas9 (Neisseria meningitidis strain 8013 Cas9), recombinant purified protein (protein)
chain: MAAFKPNSINYILGLDIGIASVGWAMVEIDEEENPIRLIDLGVRVFERAEVPKTGDSLAMARRLARSVRRLTRRRAHRLLRTRRLLKREGVLQAANFDENGLIKSLPNTPWQLRAAALDRKLTPLEWSAVLLHLIKHRGYLSQRKNEGETADKELGALLKGVAGNAHALQTGDFRTPAELALNKFEKESGHIRNQRSDYSHTFSRKDLQAELILLFEKQKEFGNPHVSGGLKEGIETLLMTQRPALSGDAVQKMLGHCTFEPAEPKAAKNTYTAERFIWLTKLNNLRILEQGSERPLTDTERATLMDEPYRKSKLTYAQARKLLGLEDTAFFKGLRYGKDNAEASTLMEMKAYHAISRALEKEGLKDKKSPLNLSPELQDEIGTAFSLFKTDEDITGRLKDRIQPEILEALLKHISFDKFVQISLKALRRIVPLMEQGKRYDEACAEIYGDHYGKKNTEEKIYLPPIPADEIRNPVVLRALSQARKVINGVVRRYGSPARIHIETAREVGKSFKDRKEIEKRQEENRKDREKAAAKFREYFPNFVGEPKSKDILKLRLYEQQHGKCLYSGKEINLGRLNEKGYVEIDHALPFSRTWDDSFNNKVLVLGSENQNKGNQTPYEYFNGKDNSREWQEFKARVETSRFPRSKKQRILLQKFDEDGFKERNLNDTRYVNRFLCQFVADRMRLTGKGKKRVFASNGQITNLLRGFWGLRKVRAENDRHHALDAVVVACSTVAMQQKITRFVRYKEMNAFDGKTIDKETGEVLHQKTHFPQPWEFFAQEVMIRVFGKPDGKPEFEEADTLEKLRTLLAEKLSSRPEAVHEYVTPLFVSRAPNRKMSGQGHMETVKSAKRLDEGVSVLRVPLTQLKLKDLEKMVNREREPKLYEALKARLEAHKDDPAKAFAEPFYKYDKAGNRTQQVKAVRVEQVQKTGVWVRNHNGIADNATMVRVDVFEKGDKYYLVPIYSWQVAKGILPDRAVVQGKDEEDWQLIDDSFNFKFSLHPNDLVEVITKKARMFGYFASCHRGTGNINIRIHDLDHKIGKNGILEGIGVKTALSFQKYQIDELGKEIRPCRLKKRPPVR
For B1, the “in vitro cleavage of a target DNA by Cas9-sgRNA (10:1 Acr:Cas9 molar ratio)” value in series [1] is “all Arc families inhibited Nme1Cas9”; in series [2] it was “all Arc families inhibited Nme1Cas9”; in series [3], “all Arc families inhibited Nme1Cas9”; in series [4], “AcrE2 failed to do so”; in series [5] it was “all Arc families inhibited Nme1Cas9”; in series [6], “all Arc families inhibited Nme1Cas9”.

The values are drawn from patent US20250197889.
